Bridges are numbered along the chain shown (N, C = ends). [ ]: non-standard residue; d: D form. NMeW = CN[C@@H](Cc1c[nH]c2ccccc12)C(=O)O; 1Nal = N[C@@H](Cc1cccc2ccccc12)C(=O)O; NMeH = CN[C@@H](Cc1c[nH]cn1)C(=O)O; AEA = NCCOCC(=O)O; βAla = NCCC(=O)O; Sar = CNCC(=O)O Bounds are passed on as bounds.

The chains are these.
T1: IL23R_huFC (human, UniProt Q5VWK5 24-353)
T1 sequence (looked up): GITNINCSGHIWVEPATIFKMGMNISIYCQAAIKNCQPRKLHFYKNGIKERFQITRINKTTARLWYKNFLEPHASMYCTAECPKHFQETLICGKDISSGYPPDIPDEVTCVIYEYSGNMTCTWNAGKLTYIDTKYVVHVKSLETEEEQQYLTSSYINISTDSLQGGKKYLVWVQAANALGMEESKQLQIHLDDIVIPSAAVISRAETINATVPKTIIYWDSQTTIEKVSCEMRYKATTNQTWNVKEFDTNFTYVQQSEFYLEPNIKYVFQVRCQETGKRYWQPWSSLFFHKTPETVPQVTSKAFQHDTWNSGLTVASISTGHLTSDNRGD

B1: Ac-CADWVCY-[1-Nal]-FTFG-NH2 (peptide)
peptide: Ac-CADWVCY[1Nal]FTFG-NH2
modifications: disulfide 1-6
SMILES: CC(=O)N[C@H]1CSSC[C@@H](C(=O)N[C@@H](Cc2ccc(O)cc2)C(=O)N[C@@H](Cc2cccc3ccccc23)C(=O)N[C@@H](Cc2ccccc2)C(=O)N[C@H](C(=O)N[C@@H](Cc2ccccc2)C(=O)NCC(N)=O)[C@@H](C)O)NC(=O)[C@H](C(C)C)NC(=O)[C@H](Cc2c[nH]c3ccccc23)NC(=O)[C@H](CC(=O)O)NC(=O)[C@H](C)NC1=O
B2: Ac-CADWVCY-[1-Nal]-H-[b-Ala]-FG-NH2 (peptide)
peptide: Ac-CADWVCY[1Nal]H[βAla]FG-NH2
modifications: disulfide 1-6
SMILES: CC(=O)N[C@H]1CSSC[C@@H](C(=O)N[C@@H](Cc2ccc(O)cc2)C(=O)N[C@@H](Cc2cccc3ccccc23)C(=O)N[C@@H](Cc2c[nH]cn2)C(=O)NCCC(=O)N[C@@H](Cc2ccccc2)C(=O)NCC(N)=O)NC(=O)[C@H](C(C)C)NC(=O)[C@H](Cc2c[nH]c3ccccc23)NC(=O)[C@H](CC(=O)O)NC(=O)[C@H](C)NC1=O
B3: Ac-CADWVCY-[1-Nal]-[(D)Ala]-TFG-NH2 (peptide)
peptide: Ac-CADWVCY[1Nal][dA]TFG-NH2
modifications: disulfide 1-6
SMILES: CC(=O)N[C@H]1CSSC[C@@H](C(=O)N[C@@H](Cc2ccc(O)cc2)C(=O)N[C@@H](Cc2cccc3ccccc23)C(=O)N[C@H](C)C(=O)N[C@H](C(=O)N[C@@H](Cc2ccccc2)C(=O)NCC(N)=O)[C@@H](C)O)NC(=O)[C@H](C(C)C)NC(=O)[C@H](Cc2c[nH]c3ccccc23)NC(=O)[C@H](CC(=O)O)NC(=O)[C@H](C)NC1=O
B4: Ac-CADWVCY-[1-Nal]-H-[(D)Ala]-FG-NH2 (peptide)
peptide: Ac-CADWVCY[1Nal]H[dA]FG-NH2
modifications: disulfide 1-6
SMILES: CC(=O)N[C@H]1CSSC[C@@H](C(=O)N[C@@H](Cc2ccc(O)cc2)C(=O)N[C@@H](Cc2cccc3ccccc23)C(=O)N[C@@H](Cc2c[nH]cn2)C(=O)N[C@H](C)C(=O)N[C@@H](Cc2ccccc2)C(=O)NCC(N)=O)NC(=O)[C@H](C(C)C)NC(=O)[C@H](Cc2c[nH]c3ccccc23)NC(=O)[C@H](CC(=O)O)NC(=O)[C@H](C)NC1=O
B5: Ac-CQTWQCYWR-[Sarc]-NG-[AEA]-[(D)-Lys]-NH2 (peptide)
peptide: Ac-CQTWQCYWR[Sar]NG[AEA][dK]-NH2
modifications: disulfide 1-6
SMILES: CC(=O)N[C@H]1CSSC[C@@H](C(=O)N[C@@H](Cc2ccc(O)cc2)C(=O)N[C@@H](Cc2c[nH]c3ccccc23)C(=O)N[C@@H](CCCNC(=N)N)C(=O)N(C)CC(=O)N[C@@H](CC(N)=O)C(=O)NCC(=O)NCCOCC(=O)N[C@H](CCCCN)C(N)=O)NC(=O)[C@H](CCC(N)=O)NC(=O)[C@H](Cc2c[nH]c3ccccc23)NC(=O)[C@H]([C@@H](C)O)NC(=O)[C@H](CCC(N)=O)NC1=O
B6: Hy-CADWVCY-[1-Nal]-[N-Me-His]-TF-OH (peptide)
peptide: H-CADWVCY[1Nal][NMeH]TF-OH
modifications: disulfide 1-6
SMILES: CC(C)[C@@H]1NC(=O)[C@H](Cc2c[nH]c3ccccc23)NC(=O)[C@H](CC(=O)O)NC(=O)[C@H](C)NC(=O)[C@@H](N)CSSC[C@@H](C(=O)N[C@@H](Cc2ccc(O)cc2)C(=O)N[C@@H](Cc2cccc3ccccc23)C(=O)N(C)[C@@H](Cc2c[nH]cn2)C(=O)N[C@H](C(=O)N[C@@H](Cc2ccccc2)C(=O)O)[C@@H](C)O)NC1=O

This assay deals with T1, IL23R_huFC. In words: IL23-IL23R competitive ELISA. A general note: ELISA stands for enzyme-linked immunosorbent assay.
The IC50 is the concentration at which inhibition is half-maximal. On to KCADWVCYWHTFG (Ac-; [(D)Lys]; disulfide) [Ac-[(D)Lys]-CADWVCYWHTFG-OH], for which the IC50 is over 1000 nM.
Regarding H-CADWVCYWHTF-NH2 (disulfide 1-6 (inferred)) [Hy-CADWVCYWHTF-NH2], the IC50 is over 1000 nM.
In turn, H-CADWVCY[1Nal]HTF-OH (disulfide 1-6 (inferred)) [Hy-CADWVCY-[1-Nal]-HTF-OH] gave an IC50 of over 1000 nM.
Turning to Ac-[dK]SCADWVCYWHTFG-OH (disulfide 3-8 (inferred)) [Ac-[(D)Lys]-SCADWVCYWHTFG-OH], the IC50 is over 1000 nM.
Consider H-[βAla]SCADWVCYWHTFG-OH (disulfide 3-8 (inferred)) [Hy-[β-Ala]-SCADWVCYWHTFG-OH], for which the IC50 was over 1000 nM.
With KACADWVCYWHTFG (Ac-; [(D)Lys]; [β-Ala]; disulfide) [Ac-[(D)Lys]-[β-Ala]-CADWVCYWHTFG-OH] the figure was over 1000 nM; with CADWVCYXHTFG ([Tic]; -NH2; disulfide) [Hy-CADWVCY[Tic]-HTFG-NH2], over 1000 nM; with H-ACDWCCYWCTFG-NH2 (disulfide (positions not given here); also: disulfide pairing not given here) [Hy-ACDWCCYWCTFG-NH2], over 1000 nM.
For the molecule H-AADWCAYWCTFG-NH2 (disulfide 5-9 (inferred)) [Hy-AADWCAYWCTFG-NH2], the IC50 is over 1000 nM.
In turn, H-CRTWVCYWHVFG-NH2 (disulfide 1-6 (inferred)) [Hy-CRTWVCYWHVFG-NH2] showed an IC50 of over 1000 nM.
In the case of CADWVCYXHTFG (not fully specified; [1-BIP]; -NH2; disulfide) [Hy-CADWVCY-[1-BIP]-HTFG-NH2], the concentration for half-maximal inhibition (IC50) was over 1000 nM.
In turn, B1 returned a half-inhibitory concentration (IC50) of over 1000 nM.
With B2 the figure was over 1000 nM; with B3, over 1000 nM; with B4, over 1000 nM.
Turning to H-CSDWRCYWHVFG-NH2 (disulfide 1-6 (inferred)) [Hy-CSDWRCYWHVFG-NH2], the IC50 was over 1000 nM.
H-CADWVCYWHT-NH2 (disulfide 1-6 (inferred)) [Hy-CADWVCYWHT-NH2] registered an IC50 of over 1000 nM.
With H-CADWCCYWCTFG-NH2 (disulfide (positions not given here); also: disulfide pairing not given here) [Hy-CADWCCYWCTFG-NH2, listing 1 of 3 here] the figure was over 1000 nM; with Ac-CKDWVCYWHTFG-OH (disulfide 1-6 (inferred)) [Ac-CKDWVCYWHTFG-OH], over 1000 nM; with H-CADWVCYAHTFG-NH2 (disulfide 1-6 (inferred)) [Hy-CADWVCYAHTFG-NH2], over 1000 nM.
Take H-CQSWECYWHYYG-NH2 (disulfide 1-6 (inferred)) [Hy-CQSWECYWHYYG-NH2]: the IC50 is over 1000 nM.
With H-CHTWVCYWHEFS-NH2 (disulfide 1-6 (inferred)) [Hy-CHTWVCYWHEFS-NH2], the IC50 is over 1000 nM.
Turning to H-CETWECYWHSFS-NH2 (disulfide 1-6 (inferred)) [Hy-CETWECYWHSFS-NH2], the IC50 is over 1000 nM.
The molecule CADXVCYWHTFG ([2-Nal]; -NH2; disulfide) [Hy-CAD-[2-Nal]-VCYWHTFG-NH2] returned an IC50 of over 1000 nM.
The molecule H-CAD[NMeW]VCY[1Nal]HTF-OH (disulfide 1-6 (inferred)) [Hy-CAD-[N-Me-Trp]-VCY-[1-Nal]-HTF-OH] registered an IC50 of over 1000 nM.
Regarding H-CSDWECYWHIFG-NH2 (disulfide 1-6 (inferred)) [Hy-CSDWECYWHIFG-NH2], the concentration for half-maximal inhibition (IC50) was over 1000 nM.
On to H-ACDWVCYWHTFG-NH2 (disulfide 2-6 (inferred)) [Hy-ACDWVCYWHTFG-NH2], for which the IC50 is over 1000 nM.
Consider CADXVCYWHTFG (not fully specified; [1-BIP]; -NH2; disulfide) [Hy-CAD-[1-BIP]-VCYWHTFG-NH2], for which the IC50 was over 1000 nM.
With H-CADWCCYWCTFG-NH2 (disulfide (positions not given here); also: disulfide pairing not given here) [Hy-CADWCCYWCTFG-NH2, listing 2 of 3 here], the IC50 was over 1000 nM.
For CADXVCYWHTFG ([1-Nal]; -NH2; disulfide) [Hy-CAD-[1-Nal]-VCYWHTFG-NH2], the IC50 was over 1000 nM.
H-CGNWECYWHVYG-NH2 (disulfide 1-6 (inferred)) [Hy-CGNWECYWHVYG-NH2] displayed an IC50 of over 1000 nM.
As for CADXVCYWHTFG ([Tic]; -NH2; disulfide) [Hy-CAD-[Tic]-VCYWHTFG-NH2], the IC50 was over 1000 nM.
With H-CQTWVCYWHTYG-NH2 (disulfide 1-6 (inferred)) [Hy-CQTWVCYWHTYG-NH2] the figure was over 1000 nM.
Consider CXDWVCYXHTF ([Sarc]; [1-Nal]; disulfide) [Hy-C-[Sarc]-DWVCY-[1-Nal]-HTF-OH], for which the IC50 is over 1000 nM.
H-CADWCCYWCTFG-NH2 (disulfide (positions not given here); also: disulfide pairing not given here) [Hy-CADWCCYWCTFG-NH2, listing 3 of 3 here] returned a half-maximal inhibitory concentration (IC50) of over 1000 nM.
For H-CKDWKCYWHIYG-NH2 (disulfide 1-6 (inferred)) [Hy-CKDWKCYWHIYG-NH2] the value was over 1000 nM.
With B5 the figure was over 1000 nM; with H-CTDWVCYWHEYS-NH2 (disulfide 1-6 (inferred)) [Hy-CTDWVCYWHEYS-NH2], over 1000 nM.
As for B6, the IC50 was over 1000 nM.

For the origin of these results see patent US20190300590A1 (PROTAGONIST THERAPEUTICS, published 2019).
